T1: O772P 3-repeat recombinant protein (human)
T1 construct: Repeats are residues 14-452 of the entry
T1 chain: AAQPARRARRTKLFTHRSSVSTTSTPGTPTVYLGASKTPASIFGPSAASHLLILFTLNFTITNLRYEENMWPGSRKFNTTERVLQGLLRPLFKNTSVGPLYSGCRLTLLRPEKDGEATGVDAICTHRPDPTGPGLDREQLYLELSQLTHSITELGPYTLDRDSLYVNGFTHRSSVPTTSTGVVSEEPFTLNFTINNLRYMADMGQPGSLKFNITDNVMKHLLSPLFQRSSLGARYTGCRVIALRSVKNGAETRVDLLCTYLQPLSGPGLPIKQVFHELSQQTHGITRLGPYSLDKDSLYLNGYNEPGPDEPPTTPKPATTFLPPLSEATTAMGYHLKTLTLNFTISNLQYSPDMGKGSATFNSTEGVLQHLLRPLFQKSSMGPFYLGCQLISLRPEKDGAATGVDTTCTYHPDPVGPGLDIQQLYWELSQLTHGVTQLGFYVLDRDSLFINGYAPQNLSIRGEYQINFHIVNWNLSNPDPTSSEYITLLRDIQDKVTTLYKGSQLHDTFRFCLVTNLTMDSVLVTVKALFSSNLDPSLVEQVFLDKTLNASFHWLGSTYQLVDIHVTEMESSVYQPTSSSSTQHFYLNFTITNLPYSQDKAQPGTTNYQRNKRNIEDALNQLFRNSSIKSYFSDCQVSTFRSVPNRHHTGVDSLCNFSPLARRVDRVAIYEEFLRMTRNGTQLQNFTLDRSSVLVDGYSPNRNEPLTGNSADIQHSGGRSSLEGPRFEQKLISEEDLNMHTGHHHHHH

T2: O772P 3-repeat TM on transfected NIH/3T3 cells (human)
T2 construct: also called NIH/3T3 O772P 3-repeat
T2 chain: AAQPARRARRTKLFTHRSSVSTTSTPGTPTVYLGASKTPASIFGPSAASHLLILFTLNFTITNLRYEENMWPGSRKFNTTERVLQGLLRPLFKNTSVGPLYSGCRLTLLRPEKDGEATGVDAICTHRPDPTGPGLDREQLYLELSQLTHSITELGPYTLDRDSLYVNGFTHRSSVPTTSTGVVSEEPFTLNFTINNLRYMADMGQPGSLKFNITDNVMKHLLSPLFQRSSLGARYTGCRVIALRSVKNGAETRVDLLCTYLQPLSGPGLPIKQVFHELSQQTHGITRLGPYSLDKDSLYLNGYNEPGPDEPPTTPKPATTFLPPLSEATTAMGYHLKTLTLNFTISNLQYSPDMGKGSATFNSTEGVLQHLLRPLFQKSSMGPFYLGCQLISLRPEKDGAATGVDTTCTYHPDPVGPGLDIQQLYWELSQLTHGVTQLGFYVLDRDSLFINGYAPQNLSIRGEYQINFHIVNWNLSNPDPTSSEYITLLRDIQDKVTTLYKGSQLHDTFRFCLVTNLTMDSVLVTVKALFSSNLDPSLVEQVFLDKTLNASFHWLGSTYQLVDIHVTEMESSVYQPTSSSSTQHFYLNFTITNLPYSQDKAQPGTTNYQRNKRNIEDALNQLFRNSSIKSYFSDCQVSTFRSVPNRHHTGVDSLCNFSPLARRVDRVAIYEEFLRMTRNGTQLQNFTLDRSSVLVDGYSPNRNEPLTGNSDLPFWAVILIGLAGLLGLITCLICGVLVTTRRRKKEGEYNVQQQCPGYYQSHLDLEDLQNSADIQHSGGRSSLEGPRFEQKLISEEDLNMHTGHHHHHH


How the values were obtained:
[1] = target: T1, O772P 3-repeat recombinant protein; experiment: BIAcore SPR, O772P 3-repeat immobilized, mAb injected
Description: A […] BIAcore biosensor chip was docked into the BIAcore X instrument and activated with 55 μl of 1:1 NHS/EDC at room temperature. O772P 3-repeat region protein and BSA at 10 μg/ml in 0.05 M acetate buffer, pH 4.5, were immobilized onto the flow cell (FC) 1 and FC2 of the activated chip, respectively, at a flow rate of 5 μl/min to achieve a resonance response of 1000-2000 RU. The chip was then blocked by injection of 55 μl of ethanolamine-HCl, pH 8.5, and followed with washing 5 times with 50 mM NaOH-1 M NaCl. To measure the binding of anti-0722P mAbs to the O772P 3-repeat region immobilized to the chip, 30 μl of anti-0722P mAbs at varying concentrations in BIAcore running buffer (HBS-EP, Cat. #1001-080, BIAcore, Piscataway, N.J.) were injected over the sensor surface at a flow rate of 5 μl/min. Following completion of the injection phase, dissociation was monitored in BIAcore running buffer at the same flow rate for 360 seconds. The surface was regenerated between injections using 30 μl of 50 mM NaOH-1 M NaCl. Individual sensorgrams were analyzed using BIAevaluation.

[2] = target: T2, O772P 3-repeat TM on transfected …; experiment: flow cytometry, NIH/3T3 cells expressing O772P 3-repeat TM; Ab 2 µg/ml
[3] = target: T2, O772P 3-repeat TM on transfected …; experiment: flow cytometry, NIH/3T3 cells expressing O772P 3-repeat TM; Ab 0.5 µg/ml
Description: Cells (OVCAR-3 (ATCC Accession No. HTB-161), SK-OV3 (ATCC Accession No. HTB-77), NIH/3T3 (ATCC Accession No. CRL-1658), and NIH/3T3 cells transfected with a sequence that expresses O772P 3-repeat protein (SEQ ID NO:2)) were removed from culture plates by digestion with trypsin (0.25%). The cells were counted and viability was assessed by trypan blue (0.2%) exclusion. Cells were then centrifuged (500×g, 5 min) and resuspended in FACS buffer (1×DPBS containing 1% BSA and 0.1% sodium azide) to a concentration between 5-10×10⁷ cells/ml. Cells were then distributed at a volume of 100 μL/well into 96-well round bottom plates and centrifuged at 500×g for 3 minutes. Antibody supernatant was removed by aspiration, and 50 μl hybridoma supernatants diluted to 1 μg/ml and 0.5 μg/μl in FACS buffer and was added to each well containing cells. Murine IgG1 kappa (Sigma, St. Louis, Mo.) (either 2.0, 1.0, 0.5, 0.1 μg/μl) was included as a negative control and OC125 and M11 (DAKO Corp, Carpinteria, Calif.) were included as positive controls. Plates were incubated for 30 minutes at 4° C. with rocking. Cells were subsequently washed 2 times with FACS buffer (200 μl/well), with centrifugation and buffer aspiration following each wash. Goat anti-mouse IgG (Fc)-biotin (Sigma, St. Louis, Mo.) was diluted 1:1000 in FACS buffer and 50 μl was added to each well containing cells. Plates were incubated 30 minutes at 4° C. with rocking. Cells were then washed with FACS buffer as above. Streptavidin-Alexa-Four 488 (Molecular Probes, Eugene, Oreg.) was diluted 1:1000 into FACS buffer and 50 μl was added to each well containing cells. Plates were then incubated 30 minutes at 4° C. with […]. Cells were then washed with FACS buffer, as above. Cells were then resuspended in 1 ml of FACS buffer and transferred to Falcon 2052 tubes and analyzed on a Becton-Dickinson Immunocytometry Systems FACSCalibur flow cytometer (San Jose, Calif.).

| Kd [1] | % positive cells [2] | % positive cells [3] | Binder |
| --- | --- | --- | --- |
| 12 nM | 83% | 63% | monoclonal antibody 117.1 (antibody, V domains shown, Murine hybridoma antibody) VH: QVTLKESGPGILQPSQTLSLTCSFSGFSLSTPGMGVGWIRQPSGKGLEWLAHIWWDDFKRDNPALKSRLTISKDTSSSQVFLKIASVDTADTATYYCVRVDGNFLSWYFDVWGAGTTVTVSS VL: DAVMTQTPLSLPVSLGDQASISCRSSQSLVHSNGNTYLHWYLQKPGQSPKLLIYKVSNRFSGVPDRFSGSGSGTDFTLRISRVEAEDLGVYFCSQSRYVPWTFGGGTKLEIK |
| 0.7 nM | 86% | 75% | monoclonal antibody 368.1 (antibody, V domains shown, Murine hybridoma antibody) VH: EVQLQQSGPELVRTGASVKISCKASGYSFTGFYMHWVKQSLGKSLEWIGYVSCYTGATTYTQKFKGKATFTVDTSSSTAYMQLNSLTSEDSAVYYCAREGDYYSMDFWGQGTSVTVSS VL: DVVMTQTPLSLPVSLGDQASISCRSSQSLERTNGNTYLHWYLQKPGQSPKLLIYKVSSRFSGVPDRFSGSGSGTDFTLKISRVEAEDLGIYFCSQTTHGPPTCGGGTKLEIK |
| 70 nM | 89% | 85% | monoclonal antibody 501.1 (antibody, V domains shown, Murine hybridoma antibody) VH: QIQLVQSGPELKKPGETVQISCKASGYIFTDYGMNWVKQAPGKGLKWMGCINTYTGETIYSDDFRGRFAISLETSASTAFIQINNLKNEDAATYFCARGNYRDAIDYWGQGTSVTVSS VL: DIKMTQSPSSIYASLGERVTITCKASQDIKSYLSWYQQKPWKSPKTLIYYATTLADGVPSRFSGSGSGQDYSLIINSLESDDIATYFCLHHDESPFTFGSGTKLEI |

— patent US20050064518A1 (PURDUE PHARMA L P, published 2005)
